Data from paper PMC6099927, “Aptamer Display on Diverse DNA Polyhedron Supports”.

Columns and labels:
[1] = target: T1, Plasmodium falciparum lactate dehydrogenase (PfLDH) (Plasmodium falciparum, UniProt Q27743 1-316); assay: APTEC plate capture assay; 2x PBS binding buffer (recombinant PfLDH), 1 h, streptavidin plate coated with DNA, PBST (0.1% Tween-20) washes, absorbance 570 nm; blood: 1:1 with PBS 0.5% Triton X-100; pH and temperature not stated; conditions: protein: recombinant, tags: His (HisTrap purified), chain copies: 4
[2] = target: T1, Plasmodium falciparum lactate …; assay: APTEC plate capture assay (enzyme activity of captured PfLDH), logistic fit; 2x PBS binding buffer (recombinant PfLDH), 1 h, streptavidin plate coated with DNA, PBST (0.1% Tween-20) washes, absorbance 570 nm; blood: 1:1 with PBS 0.5% Triton X-100; pH and temperature not stated; conditions: protein: recombinant; tags: His (HisTrap purified); chain copies: 4; label: 5' biotin; single strand
[3] = target: T1, Plasmodium falciparum lactate …; assay: APTEC plate capture assay; higher signal than aptamer alone; 2x PBS binding buffer (recombinant PfLDH), 1 h, streptavidin plate coated with DNA, PBST (0.1% Tween-20) washes, absorbance 570 nm; blood: 1:1 with PBS 0.5% Triton X-100; pH and temperature not stated; conditions: protein: recombinant, tags: His (HisTrap purified), chain copies: 4

T1 sequence (Q27743 whole entry): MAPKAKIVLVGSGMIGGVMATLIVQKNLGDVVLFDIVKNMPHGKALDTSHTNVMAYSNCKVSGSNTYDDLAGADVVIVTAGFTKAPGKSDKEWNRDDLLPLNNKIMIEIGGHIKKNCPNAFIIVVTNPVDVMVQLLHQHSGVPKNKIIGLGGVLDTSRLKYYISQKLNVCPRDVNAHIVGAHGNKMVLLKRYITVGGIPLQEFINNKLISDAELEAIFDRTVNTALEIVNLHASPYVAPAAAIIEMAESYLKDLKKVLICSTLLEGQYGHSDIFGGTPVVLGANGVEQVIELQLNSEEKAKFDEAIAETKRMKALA

B1: aptamer square-based pyramid (mixed)
DNA 1: TTATGTAACCGTGTCACTCCAGGTGTACTTCCTAAAATCGCGCGACCAG
DNA 2: TTCACGGTTACATTCTGTGTTGGCACGGCGTCGTCCGGGTGGCGGTT
DNA 3: TTCACCTGGAGTGTAACCGCCACCCGGACGTCGTTCGTCAAATAGTG
DNA 4: TTTTTTAGGAAGTTCACTATTTGACGAACGTGCTATGCCGCGCGCCT
DNA 5: CTGGGCGGTAGAACCATAGTGACCCAGCCGTCTACTTCGCCGTGCCAACACAGTCTGGTCGCGCGTAGGCGCGCGGCATAGC
Q: How did the Kd ([1]; label: 5' biotin on P1a-P1d, square-based pyramid of 5 strands) turn out when B1 was run?
A: 5.99 ± 0.64 nM

B2: aptamer-tetrahedron 1 (mixed)
DNA 1: TTTTGCGGCTGGAGCCATGTCATCAGGGGCACGTCTCTAGGACGCGGCCGGGTCT
DNA 2: TTCATGGCTCCAGCCGCAATGACGGGACCGTGTGCCTGAGC
DNA 3: TTGAGACGTGCCCCTGATGTGCTCAGGCACTGCAGGGCAAA
DNA 4: CTGGGCGGTAGAACCATAGTGACCCAGCCGTCTACTTCGGTCCCGTCTAGACCCGGCCGCGTCCTTTTTGCCCTGC
Q: For B2, which Kd ([1]; label: 5' biotin on Ta, T1b, T1c, tetrahedron of 4 strands, height 2.65 nm) is on record?
A: 1.22 ± 0.13 nM

B3: aptamer-tetrahedron 2 (mixed)
DNA 1: B2 DNA 1
DNA 2: TTCATGGCTCCAGCCGCAATTATCTAGCGATCTCACCTCGTCAAGGGTAAGCCCG
DNA 3: TTGAGACGTGCCCCTGATGTCGGGCTTACCCTTGACGTGTGGTAATTGTTGTGTA
DNA 4: CTGGGCGGTAGAACCATAGTGACCCAGCCGTCTACTTGGTGAGATCGCTAGATATAGACCCGGCCGCGTCCTTTACACAACAATTACCAC
Q: For B3, which Kd ([1]; label: 5' biotin on Ta, T2b, T2c, tetrahedron of 4 strands, height 6.72 nm) is on record?
A: 2.09 ± 0.15 nM

B4: aptamer-tetrahedron 3 (mixed)
DNA 1: B2 DNA 1
DNA 2: TTCATGGCTCCAGCCGCAATTGATCATTGAGTGTCGGTGGCGATGTCTCCCCGATAAAGCGTATGTTATAAGTCT
DNA 3: TTGAGACGTGCCCCTGATGTAGACTTATAACATACGCTTTATCGGGGTCCGGAGCCATCACACCTGGATCAGGAC
DNA 4: CTGGGCGGTAGAACCATAGTGACCCAGCCGTCTACTTGACATCGCCACCGACACTCAATGATCATAGACCCGGCCGCGTCCTTGTCCTGATCCAGGTGTGATGGCTCCGG
Q: For B4, which Kd ([1]; label: 5' biotin on Ta, T3b, T3c, tetrahedron of 4 strands, height 10.55 nm) is on record?
A: 1.61 ± 0.1 nM

Q: CTGGGCGGTAGAACCATAGTGACCCAGCCGTCTAC (structured_DNA) [PfLDH aptamer alone (Apt)] was tested. Which Kd [2] did it give?
A: 12.7 ± 0.71 nM

B5: aptamer with double-stranded spacer (C2a/C2b) (mixed)
DNA 1: CTGGGCGGTAGAACCATAGTGACCCAGCCGTCTACTTTGGGGCCGGGCGCGCCCCGGTT
DNA 2: TTCCGGGGCGCGCCCGGCCCCA
Q: Does B5 bind ([3]; label: 3' biotin on C2a, 20 bp spacer duplex, 5' aptamer overhang)?
A: binds

B6: aptamer with single-stranded spacer (C2a) (structured_DNA)
DNA: B5 DNA 1
Q: Does B6 bind ([3]; label: 3' biotin, single strand)?
A: binds

B7: aptamer pentagon-based pyramid (mixed)
DNA 1: TTCGGCCGATCTGGCATAGGCTTCCCCAACGTTATCTCGCGTGGCGTACGG
DNA 2: TTGATCGGCCGTTCCGCGCGTCCTGCCCTAGACGCCCCTGGGCCC
DNA 3: TTGCCTATGCCTGGGCCCAGGGGCGTCTTGGAGTCAACAGGTCGG
DNA 4: TTCGTTGGGGATCCGACCTGTTGACTCCTCCCGTCGACCAAAGAT
DNA 5: TTCGCGAGATATATCTTTGGTCGACGGGTCTCAGCCCTGACCCCA
DNA 6: CTGGGCGGTAGAACCATAGTGACCCAGCCGTCTACTTGGGCAGGACGCGCGGATCCGTACGCCTTGGGGTCAGGGCTGAG
Q: With B7 as the binder, how does the Kd ([1]; label: 5' biotin on P2a-P2e, pentagon-based pyramid of 6 strands) read?
A: 14.8 ± 0.8 nM
